From the supplement of paper PMC7877785 come the findings set out here.

± gives the uncertainty stated by the source.

This data set can be described thus: self-splicing fitness, log relative to wild type (ln ratio); higher = more splicing; Tetrahymena group I intron in knt gene, E. coli kanamycin selection, DiMSum; sequences stand for … in CUCUCU…GGAGGGAAAAGUUAUCAGGCAUGCACCUGGUAGCUAGUCUUUAAACCAAUAGAUUGCAUCGGUUUAAAAGGCAAGACCGUCAAAUUGCGGGAAAGGGGUCAACAGCCGUUCAGUACCAAGUCUCAGGGGAAACUUUGAGAUGGCCUUGCAAAGGGUAUGGUAAUAAGCUGACGGACAUGGUCCUAACCACGCAGCCAAGUCCUAAGUCAACAGAUCUUCUGUUGAUAUGGAUGCAGUUCACAGACUAAAUGUCGGUCGGGGAAGAUGUAUUCUUCUCAUAAGAUAUAGUCGGACCUCUCCUUAAUGGGAGCUAGCGGAUGAAGUGAUGCAACACUGGAGCCGCUGGGAACUAAUUUGUAUGCGAAAGUAUAUUGAUUAGUUUUGGAGUACUCGUGGUCG
Summed up: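 Six replicate transformations of E. coli BL21(DE3) with a pET-22b(+) library were grown overnight at 37°C or 30°C. The library randomised all eight P1ex-region intron nucleotides, the intron lying in the knt kanamycin-resistance gene, and plates were LB agar with or without 25 μg/mL kanamycin plus 100 μg/mL carbenicillin, 50 μM IPTG and 0.2% rhamnose. Pooled colonies were amplicon-sequenced on an Illumina HiSeq 2500, and fitness is the DiMSum error-weighted combination of wild-type-normalised replicate fold changes, kanamycin versus none.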

On to GCUUAGCAAUAUUACGUACU, for which the “self-splicing fitness (ln)” value is, setting by setting: (30 °C) -0.712 ± 0.1; (37 °C) -0.0558 ± 0.13.

For the sequence GCUUAGCAAUAUUACGUAGA, the “self-splicing fitness (ln)” value (30 °C) was -0.53 ± 0.076 and the “self-splicing fitness (ln)” value (37 °C) came to 0.396 ± 0.093.

For GCUUAGCAAUAUUACGUAGG, the “self-splicing fitness (ln)” value is -1.51 ± 0.11 (30 °C) and -0.916 ± 0.14 (37 °C).

GCUUAGCAAUAUUACGUAUA: the “self-splicing fitness (ln)” value reads like this: (30 °C) -1.24 ± 0.072; (37 °C) -1.15 ± 0.094.

On to GCUUAGCAAUAUUACGUAUU, for which the “self-splicing fitness (ln)” value (30 °C) was -0.48 ± 0.12 and the “self-splicing fitness (ln)” value (37 °C) was 0.669 ± 0.15.

Regarding GCUUAGCAAUAUUACGUCGG, the “self-splicing fitness (ln)” value reads like this: (30 °C) -1.89 ± 0.13; (37 °C) -1.75 ± 0.18.

As for GCUUAGCAAUAUUACGUGCA, the “self-splicing fitness (ln)” value is, setting by setting: (30 °C) -1.11 ± 0.11; (37 °C) -0.319 ± 0.13.

In the case of GCUUAGCAAUAUUACGUGGA, the “self-splicing fitness (ln)” value is -2.06 ± 0.13 (30 °C) and -0.531 ± 0.11 (37 °C).

As to GCUUAGCAAUAUUACGUUCU, the “self-splicing fitness (ln)” value is -1.03 ± 0.095 (30 °C) and 0.0827 ± 0.1 (37 °C).

In the case of GCUUAGCAAUAUUACGUUUU, the “self-splicing fitness (ln)” value runs as follows: (30 °C) -1.68 ± 0.068; (37 °C) -0.474 ± 0.075.

As for GGAAAGCAAUAUUACGAACU, the “self-splicing fitness (ln)” value by setting is: (30 °C) -0.854 ± 0.1; (37 °C) 0.214 ± 0.12.

Consider GGAAAGCAAUAUUACGAAUU, for which the “self-splicing fitness (ln)” value reads like this: (30 °C) -1.96 ± 0.16; (37 °C) -1.4 ± 0.12.

Regarding GGAAAGCAAUAUUACGACAG, the “self-splicing fitness (ln)” value is -2.98 ± 0.14 (30 °C) and -2.17 ± 0.22 (37 °C).

Consider GGAAAGCAAUAUUACGAGCA, for which the “self-splicing fitness (ln)” value was -1.01 ± 0.078 (30 °C) and -0.54 ± 0.083 (37 °C).

Regarding GGAAAGCAAUAUUACGAGCC, the “self-splicing fitness (ln)” value is, setting by setting: (30 °C) -1.45 ± 0.12; (37 °C) -0.842 ± 0.17.

In the case of GGAAAGCAAUAUUACGAUAU, the “self-splicing fitness (ln)” value (30 °C) was -0.885 ± 0.076 and the “self-splicing fitness (ln)” value (37 °C) is -0.58 ± 0.1.

As for GGAAAGCAAUAUUACGCCAC, the “self-splicing fitness (ln)” value (30 °C) is -2.68 ± 0.33.

Regarding GGAAAGCAAUAUUACGCCUG, the “self-splicing fitness (ln)” value (30 °C) was -1.73 ± 0.34.

For GGAAAGCAAUAUUACGCGCU, the “self-splicing fitness (ln)” value runs as follows: (30 °C) -3.27 ± 0.38; (37 °C) -1.37 ± 0.26.

As for GGAAAGCAAUAUUACGCUAA, the “self-splicing fitness (ln)” value reads like this: (30 °C) -0.882 ± 0.25; (37 °C) -1.08 ± 0.27.

On to GGAAAGCAAUAUUACGGACC, for which the “self-splicing fitness (ln)” value is, setting by setting: (30 °C) -2.35 ± 0.36; (37 °C) -1.44 ± 0.41.

On to GGAAAGCAAUAUUACGGACU, for which the “self-splicing fitness (ln)” value (30 °C) was -1.51 ± 0.27 and the “self-splicing fitness (ln)” value (37 °C) was -0.961 ± 0.28.

GGAAAGCAAUAUUACGGAGA: the “self-splicing fitness (ln)” value was -1.97 ± 0.27 (30 °C) and -2.54 ± 0.26 (37 °C).

For the sequence GGAAAGCAAUAUUACGGCUC, the “self-splicing fitness (ln)” value (30 °C) is -0.254 ± 0.13 and the “self-splicing fitness (ln)” value (37 °C) was 0.018 ± 0.16.

Consider GGAAAGCAAUAUUACGGGUG, for which the “self-splicing fitness (ln)” value is, setting by setting: (30 °C) -1.91 ± 0.14; (37 °C) -1.78 ± 0.15.

As to GGAAAGCAAUAUUACGUAUU, the “self-splicing fitness (ln)” value reads like this: (30 °C) -1.25 ± 0.13; (37 °C) -1.45 ± 0.16.

On to GGAAAGCAAUAUUACGUCCA, for which the “self-splicing fitness (ln)” value (30 °C) is -1.37 ± 0.28 and the “self-splicing fitness (ln)” value (37 °C) was -0.294 ± 0.26.

As to GGAAAGCAAUAUUACGUCUA, the “self-splicing fitness (ln)” value runs as follows: (30 °C) -0.626 ± 0.11; (37 °C) 0.689 ± 0.14.

For the sequence GGAAAGCAAUAUUACGUGAU, the “self-splicing fitness (ln)” value is, setting by setting: (30 °C) -2.79 ± 0.086; (37 °C) -1.76 ± 0.089.

As for GGAAAGCAAUAUUACGUGCA, the “self-splicing fitness (ln)” value (30 °C) was -0.965 ± 0.075 and the “self-splicing fitness (ln)” value (37 °C) amounted to 0.36 ± 0.099.

Take GGAAAGCAAUAUUACGUUUG: the “self-splicing fitness (ln)” value by setting is: (30 °C) -3.17 ± 0.26; (37 °C) -1.79 ± 0.25.

GGACAGCAAUAUUACGAAAU: the “self-splicing fitness (ln)” value (30 °C) is -1.25 ± 0.11 and the “self-splicing fitness (ln)” value (37 °C) is -0.0392 ± 0.14.

For the sequence GGACAGCAAUAUUACGAAUG, the “self-splicing fitness (ln)” value runs as follows: (30 °C) -2.09 ± 0.17; (37 °C) -1.9 ± 0.22.

GGACAGCAAUAUUACGACUG: the “self-splicing fitness (ln)” value runs as follows: (30 °C) -0.809 ± 0.12; (37 °C) -0.232 ± 0.17.

GGACAGCAAUAUUACGAGUA: the “self-splicing fitness (ln)” value is -2.92 ± 0.15 (30 °C) and -1.79 ± 0.13 (37 °C).

In the case of GGACAGCAAUAUUACGAUCU, the “self-splicing fitness (ln)” value reads like this: (30 °C) -2.62 ± 0.18; (37 °C) -1.8 ± 0.2.

For GGACAGCAAUAUUACGCACC, the “self-splicing fitness (ln)” value (30 °C) was -2.25 ± 0.25 and the “self-splicing fitness (ln)” value (37 °C) is -1.8 ± 0.38.

Regarding GGACAGCAAUAUUACGCAUC, the “self-splicing fitness (ln)” value by setting is: (30 °C) -3 ± 0.12; (37 °C) -0.76 ± 0.13.
